Measurements taken from patent publication US20140178935A1 (AVEO PHARMACEUTICALS, published 2014).
Like-named read-outs stand apart in the source and are kept apart here. Values belong to the binder of their own block, whether it stands above or below them.

Experiments:
[1] = biological target: T1, recombinant human HGF (R&D Systems, Catalog No. 294-HGN-025) (human, UniProt P14210 32-728); assay: SPR, captured antibody, HGF injected, 25 C
T1 construct: Mature HGF is a disulfide-linked heterodimer of alpha and beta chain cut from one precursor; also called rhHGF (R&D Systems); rhHGF
T1 sequence (P14210 32-728 limits assumed): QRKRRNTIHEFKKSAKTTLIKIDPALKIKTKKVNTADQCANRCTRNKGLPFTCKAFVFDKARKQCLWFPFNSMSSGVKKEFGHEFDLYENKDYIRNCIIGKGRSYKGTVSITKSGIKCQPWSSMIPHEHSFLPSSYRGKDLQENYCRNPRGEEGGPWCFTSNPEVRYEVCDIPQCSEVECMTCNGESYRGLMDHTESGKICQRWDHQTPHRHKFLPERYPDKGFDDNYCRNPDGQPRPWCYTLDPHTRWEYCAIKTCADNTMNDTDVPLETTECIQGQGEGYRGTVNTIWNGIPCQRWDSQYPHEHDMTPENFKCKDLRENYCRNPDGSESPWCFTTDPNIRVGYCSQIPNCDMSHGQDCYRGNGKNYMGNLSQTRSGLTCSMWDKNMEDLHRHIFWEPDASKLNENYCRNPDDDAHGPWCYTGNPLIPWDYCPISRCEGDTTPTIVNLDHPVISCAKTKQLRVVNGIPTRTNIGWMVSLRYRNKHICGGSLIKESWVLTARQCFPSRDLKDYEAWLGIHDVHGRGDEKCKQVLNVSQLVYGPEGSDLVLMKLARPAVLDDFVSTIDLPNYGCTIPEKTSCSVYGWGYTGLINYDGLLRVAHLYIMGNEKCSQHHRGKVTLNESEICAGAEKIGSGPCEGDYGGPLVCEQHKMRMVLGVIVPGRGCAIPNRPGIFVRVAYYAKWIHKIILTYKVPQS
Experimental: Mouse anti-human immunoglobulins (Jackson Labs, Catalog No. 209-005) were immobilized on carboxymethylated dextran CM4 sensor chips (BIAcore, Catalog No. BR-1006-68) by amine coupling (BIAcore, Catalog No. BR-1000-50) using a standard coupling protocol according to manufacturer's instructions. The analyses were performed at 25° C. using PBS (GIBCO, Catalog No. 14040-133) containing 0.05% surfactant P20 (BIAcore, Catalog No. BR-1000-54), and 2 mg/mL BSA (EMD, Catalog No. 2930).
The antibodies were captured in an individual flow cell at a flow rate of 10 μL/min. Injection time was variable for each antibody to yield approximately 20 RU of antibody captured for each cycle. […] The dissociation phase was monitored for 15 or 90 minutes, depending on concentration. The surface then was regenerated with 10 mM Glycine-HCl, pH 2.2 (BIAcore, Catalog No. BR-1003-54) injected for 3 minutes at a flow rate of 60 μL/min before another cycle was initiated.
Kinetic parameters were determined using the kinetic function of the BIAevalutation™ software with reference subtraction.

[2] = biological target: T1, recombinant human HGF (R&D Systems, …); assay: competition ELISA (DELFIA): antibody inhibits biotinylated c-Met binding to plate-coated HGF
Experimental: The plates then were blocked with 200 μL of 5% non-fat dry milk in PBS for 1 hour at room temperature. […] 100 μL of sample per well was transferred to the assay plate and incubated for 2 hours at room temperature. The resulting plates were washed three times with PBS-0.1% Tween 20, and incubated for 1 hour at room temperature with Eu-labeled Streptavidin (Wallac, Catalog No. 1244-360) diluted 1:1000 in DELFIA assay buffer (Wallac, Catalog No. 4002-0010). The resulting plates were washed 3 times with DELFIA wash solution (Wallac, Catalog No. 4010-0010) and incubated with 100 μL/well DELFIA enhancement solution (Wallac #4001-0010) for 15 minutes at room temperature with agitation. The plates were read on Victor³V instrument (Perkin Elmer) using the Europium method. The IC₅₀ values were calculated using Prism.

[3] = biological target: T1, recombinant human HGF (R&D Systems, …); assay: cell-based or functional assay
[4] = biological target: T1, recombinant human HGF (R&D Systems, …); assay: cell-based or functional assay; remark: listed apart in the source
[5] = biological target: hHGF-Fc C561R (recombinant hHGF protein containing a cysteine to arginine substitution at position 561) (human); assay: SPR, antibody immobilized, HGF protein injected, 25 C
Chain of hHGF-Fc C561R (recombinant hHGF protein containing a cysteine to arginine substitution at position 561) (human) (chain, as listed by the source C561R C561R limits assumed): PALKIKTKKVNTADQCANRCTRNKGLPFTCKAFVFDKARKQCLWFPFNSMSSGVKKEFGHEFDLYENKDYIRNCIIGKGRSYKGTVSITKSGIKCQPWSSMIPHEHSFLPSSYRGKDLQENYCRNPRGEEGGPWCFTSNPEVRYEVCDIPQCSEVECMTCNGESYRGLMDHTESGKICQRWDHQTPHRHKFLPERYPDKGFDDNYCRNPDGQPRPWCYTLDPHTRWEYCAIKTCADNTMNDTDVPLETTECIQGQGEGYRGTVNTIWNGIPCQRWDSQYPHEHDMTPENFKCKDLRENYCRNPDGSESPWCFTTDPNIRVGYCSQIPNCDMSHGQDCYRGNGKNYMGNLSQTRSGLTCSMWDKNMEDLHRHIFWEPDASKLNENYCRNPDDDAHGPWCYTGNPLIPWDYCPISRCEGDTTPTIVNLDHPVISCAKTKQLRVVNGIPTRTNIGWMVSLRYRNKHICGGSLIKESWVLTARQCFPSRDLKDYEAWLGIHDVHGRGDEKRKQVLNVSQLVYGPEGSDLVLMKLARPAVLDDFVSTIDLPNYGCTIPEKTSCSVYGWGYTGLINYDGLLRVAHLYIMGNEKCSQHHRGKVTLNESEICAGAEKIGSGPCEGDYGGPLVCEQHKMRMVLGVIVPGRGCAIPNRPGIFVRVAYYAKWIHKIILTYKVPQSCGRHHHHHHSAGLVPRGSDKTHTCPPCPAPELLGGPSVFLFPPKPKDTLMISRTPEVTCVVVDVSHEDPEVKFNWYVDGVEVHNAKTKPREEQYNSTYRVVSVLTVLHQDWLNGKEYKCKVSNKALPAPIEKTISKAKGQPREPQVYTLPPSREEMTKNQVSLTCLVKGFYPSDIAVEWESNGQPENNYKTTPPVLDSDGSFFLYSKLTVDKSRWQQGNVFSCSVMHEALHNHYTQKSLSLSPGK
Experimental: (§1) Each antibody was immobilized on a carboxymethylated dextran CM5 sensor chip (BIAcore, Catalog No. BR-1006-68) by amine coupling (BIAcore, Catalog No. BR-1000-50) using a standard coupling protocol according to manufacturer's instructions.
(§2) Analyses were performed at 25° C. using PBS (GIBCO, Catalog No. 14040-133) containing 0.05% surfactant P20 (BIAcore, Catalog No. R-1000-54), 2 mg/mL BSA (EMD, Catalog No. 2930) and 10 mg/mL CM-Dextran Sodium salt (Fluka, Catalog No. 86524) as running buffer. […] The resulting binding was determined as resonance units (RU) over baseline 30 seconds after the end of injection. […] Non-specific binding was monitored by comparing binding to a control surface where mouse IgG (Rockland, Catalog No. 010-0102) was immobilized using the same amine coupling procedure.

[6] = biological target: hHGF-Fc G555E (recombinant hHGF protein containing a glycine to glutamate substitution at position 555) (human); assay: as above
Chain of hHGF-Fc G555E (recombinant hHGF protein containing a glycine to glutamate substitution at position 555) (human) (chain, as listed by the source G555E G555E limits assumed): as the sequence (chain, as listed by the source C561R C561R limits assumed) above, with G501E, R507C counted along it
Experimental: as §1, §2

[7] = biological target: T1, recombinant human HGF (R&D Systems, …); assay: competition ELISA (DELFIA): antibody inhibits c-Met binding to plate-coated HGF
Experimental: The plates then were blocked with 200 μL of 5% non-fat dry milk in PBS for 1 hour at room temperature. […] 100 μL of sample per well was transferred to the assay plate and incubated overnight at 4° C.
The resulting plates then were washed three times with PBS-0.1% Tween 20, and incubated for 1 hour at room temperature with Eu-labeled Streptavidin (Wallac, Catalog No. 1244-360) diluted 1:1000 in DELFIA assay buffer (Wallac, Catalog No. 4002-0010). The resulting plates were washed 3 times with DELFIA wash solution (Wallac, Catalog No. 4010-0010) and incubated with 100 μL/well DELFIA enhancement solution (Wallac #4001-0010) for 15 minutes at room temperature with agitation.
The plates were read on Victor³V instrument (Perkin Elmer) using the Europium method.

[8] = biological target: T1, recombinant human HGF (R&D Systems, …); assay: cell-based or functional assay; remark: listed apart in the source

Kd [1]: 6.5 pM | koff [1]: 1.1e-05 s⁻¹ | kon [1]: 1.7e+06 M⁻¹ s⁻¹ | IC50 [2]: 6.5 nM | IC50, neutralization of HGF stimulated BrdU incorporation in 4 MBr-5 cells [3]: 0.58 nM
B1: HE2B8-4 (LRMR2B8HC + IgG1 constant region G1m(3) allotype allele 1, plus LRMR2B8LC + Kappa constant region Km(3) allotype allele 1) (antibody, V domains shown)
VH: QVQLVQPGAEVKKPGTSVKLSCKASGYTFTTYWMHWVRQAPGQGLEWIGEINPTNGHTNYNQKFQGRATLTVDKSTSTAYMELSSLRSEDTAVYYCARNYVGSIFDYWGQGTLLTVSS
VL: DIVMTQSPDSLAMSLGERVTLNCKASENVVSYVSWYQQKPGQSPKLLIYGASNRESGVPDRFSGSGSATDFTLTISSVQAEDVADYHCGQSYNYPYTFGQGTKLEIKR
notes: Human Engineered 2B8 variant, human IgG1 kappa, made in HEK293E cells

Kd [1]: 7.3 pM | koff [1]: 1e-05 s⁻¹ | kon [1]: 1.4e+06 M⁻¹ s⁻¹ | EC50, inhibition of HGF-stimulated c-Met phosphorylation in PC-3 cells, Average of Two Trials [4]: 0.287 nM | IC50 [2]: 9.2 nM | IC50, neutralization of HGF stimulated BrdU incorporation in 4 MBr-5 cells [3]: 0.86 nM | binding result [5]: binds | binding result [6]: binds | IC50 [7]: 5.57 nM | IC50, neutralization of HGF stimulated BrdU incorporation in 4 MBr-5 cells [8]: 1.41 nM
B2: anti-hHGF monoclonal antibody 2B8 (antibody, mouse IgG1, kappa)
heavy: QVQLQQPGAELVKPGTSVKLSCKASGYTFTTYWMHWVNQRPGQGLEWIGEINPTNGHTNYNEKFKSKATLTVDKSSSTAYMQLSSLTSEDSAVYYCARNYVGSIFDYWGQGTTLTVSSAKTTPPSVYPLAPGSAAQTNSMVTLGCLVKGYFPEPVTVTWNSGSLSSGVHTFPAVLQSDLYTLSSSVTVPSSTWPSETVTCNVAHPASSTKVDKKIVPRDCGCKPCICTVPEVSSVFIFPPKPKDVLTITLTPKVTCVVVDISKDDPEVQFSWFVDDVEVHTAQTQPREEQFNSTFRSVSELPIMHQDWLNGKEFKCRVNSAAFPAPIEKTISKTKGRPKAPQVYTIPPPKEQMAKDKVSLTCMITDFFPEDITVEWQWNGQPAENYKNTQPIMDTDGSYFVYSKLNVQKSNWEAGNTFTCSVLHEGLHNHHTEKSLSHSPGK
light: NIVMTQSPKSMSMSVGERVTLSCKASENVVSYVSWYQQKPAQSPKLLIYGASNRNTGVPDRFTGSGSATDFTLTISSVRAEDLADYHCGQSYNYPYTFGGGTRLEIKRADAAPTVSIFPPSSEQLTSGGASVVCFLNNFYPKDINVKWKIDGSERQNGVLNSWTDQDSKDSTYSMSSTLTLTKDEYERHNSYTCEATHKTSTSPIVKSFNRNEC
notes: Murine IgG1 kappa from hybridoma; also called murine 2B8; mouse 2B8
